# According to patent US20240117018A1:
# What was measured:
# Assay in all cases: cell-based or functional assay
# [1] = biological target: HIV-1 Env of pseudovirus X1193_c1 (HIV-1)
# [2] = biological target: HIV-1 Env of pseudovirus X1254_c3 (HIV-1)
# [3] = biological target: HIV-1 Env of pseudovirus BJOX010000.06.2 (HIV-1)
# [4] = biological target: HIV-1 Env of pseudovirus C1080.c03 (HIV-1)
# [5] = biological target: HIV-1 Env of pseudovirus 89-F1_2_25 (HIV-1)
# [6] = biological target: HIV-1 Env of pseudovirus 0815.v3.c3 (HIV-1)
# [7] = biological target: HIV-1 Env of pseudovirus R2184.c04 (HIV-1)
# [8] = biological target: HIV-1 Env of pseudovirus 3103.v3.c10 (HIV-1)
# [9] = biological target: HIV-1 Env of pseudovirus 9004SS_A3_4 (HIV-1)
# [10] = biological target: HIV-1 Env of pseudovirus A07412M1.vrc12 (HIV-1)
# [11] = biological target: HIV-1 Env of pseudovirus 6952.v1.c20 (HIV-1)
# [12] = biological target: HIV-1 Env of pseudovirus 211-9 (HIV-1)
# [13] = biological target: HIV-1 Env of pseudovirus C3347.c11 (HIV-1)
# [14] = biological target: HIV-1 Env of pseudovirus 263-8 (HIV-1)
# [15] = biological target: HIV-1 Env of pseudovirus BJOX025000.01.1 (HIV-1)
# [16] = biological target: HIV-1 Env of pseudovirus C4118.c09 (HIV-1)
# [17] = biological target: HIV-1 Env of pseudovirus R1166.c01 (HIV-1)
# [18] = biological target: HIV-1 Env of pseudovirus P1981_C5_3 (HIV-1)
# [19] = biological target: HIV-1 Env of pseudovirus X2131_C1_B5 (HIV-1)
# [20] = biological target: HIV-1 Env of pseudovirus T251-18 (HIV-1)
# [21] = biological target: HIV-1 Env of pseudovirus 191084 B7-19 (HIV-1)
# [22] = biological target: HIV-1 Env of pseudovirus 231966.c02 (HIV-1)
# [23] = biological target: HIV-1 Env of pseudovirus P0402_c2_11 (HIV-1)
# [24] = biological target: HIV-1 Env of pseudovirus BJOX028000.10.3 (HIV-1)
# [25] = biological target: HIV-1 Env of pseudovirus BJOX009000.02.4 (HIV-1)
# [26] = biological target: HIV-1 Env of pseudovirus T257-31 (HIV-1)
# [27] = biological target: HIV-1 Env of pseudovirus R3265.c06 (HIV-1)
# [28] = biological target: HIV-1 Env of pseudovirus 3016.v5.c45 (HIV-1)
# [29] = biological target: HIV-1 Env of pseudovirus 231965.c01 (HIV-1)
# [30] = biological target: HIV-1 Env of pseudovirus 6540.v4.c1 (HIV-1)
# [31] = biological target: HIV-1 Env of pseudovirus 6041.v3.c23 (HIV-1)
# [32] = biological target: HIV-1 Env of pseudovirus 6545.v4.c1 (HIV-1)
# [33] = biological target: HIV-1 Env of pseudovirus T255-34 (HIV-1)
# [34] = biological target: HIV-1 Env of pseudovirus 620345.c01 (HIV-1)
# [35] = biological target: HIV-1 Env of pseudovirus T278-50 (HIV-1)
# [36] = biological target: HIV-1 Env of pseudovirus X2088_c9 (HIV-1)
# [37] = biological target: HIV-1 Env of pseudovirus 3301.v1.c24 (HIV-1)
substance,measurement,setting,value
N49P9 (antibody),neutralization IC50,[1],0.025 µg/mL
same,neutralization IC80,[1],0.081 µg/mL
same,neutralization MPI,[1],100
same,neutralization IC50,[2],0.04 µg/mL
same,neutralization IC80,[2],0.104 µg/mL
same,neutralization MPI,[2],100
same,neutralization IC50,[3],0.482 µg/mL
same,neutralization IC80,[3],2.34 µg/mL
same,neutralization MPI,[3],100
same,neutralization IC50,[4],0.119 µg/mL
same,neutralization IC80,[4],0.575 µg/mL
same,neutralization MPI,[4],100
same,neutralization IC50,[5],> 50 µg/mL
same,neutralization IC80,[5],> 50 µg/mL
same,neutralization MPI,[5],23
same,neutralization IC50,[6],0.02 µg/mL
same,neutralization IC80,[6],0.057 µg/mL
same,neutralization MPI,[6],100
same,neutralization IC50,[7],0.015 µg/mL
same,neutralization IC80,[7],0.034 µg/mL
same,neutralization MPI,[7],100
same,neutralization IC50,[8],17.6 µg/mL
same,neutralization IC80,[8],> 50 µg/mL
same,neutralization MPI,[8],55
same,neutralization IC50,[9],0.175 µg/mL
same,neutralization IC80,[9],0.751 µg/mL
same,neutralization MPI,[9],100
same,neutralization IC50,[10],0.142 µg/mL
same,neutralization IC80,[10],0.636 µg/mL
same,neutralization MPI,[10],100
same,neutralization IC50,[11],0.095 µg/mL
same,neutralization IC80,[11],0.258 µg/mL
same,neutralization MPI,[11],100
same,neutralization IC50,[12],0.136 µg/mL
same,neutralization IC80,[12],0.485 µg/mL
same,neutralization MPI,[12],100
same,neutralization IC50,[13],0.023 µg/mL
same,neutralization IC80,[13],0.065 µg/mL
same,neutralization MPI,[13],100
same,neutralization IC50,[14],0.032 µg/mL
same,neutralization IC80,[14],0.161 µg/mL
same,neutralization MPI,[14],100
same,neutralization IC50,[15],0.055 µg/mL
same,neutralization IC80,[15],0.252 µg/mL
same,neutralization MPI,[15],100
same,neutralization IC50,[16],0.072 µg/mL
same,neutralization IC80,[16],0.2 µg/mL
same,neutralization MPI,[16],100
same,neutralization IC50,[17],0.064 µg/mL
same,neutralization IC80,[17],0.223 µg/mL
same,neutralization MPI,[17],100
same,neutralization IC50,[18],0.308 µg/mL
same,neutralization IC80,[18],0.701 µg/mL
same,neutralization MPI,[18],100
same,neutralization IC50,[19],0.082 µg/mL
same,neutralization IC80,[19],0.274 µg/mL
same,neutralization MPI,[19],100
same,neutralization IC50,[20],0.147 µg/mL
same,neutralization IC80,[20],0.517 µg/mL
same,neutralization MPI,[20],100
same,neutralization IC50,[21],0.042 µg/mL
same,neutralization IC80,[21],0.129 µg/mL
same,neutralization MPI,[21],100
same,neutralization IC50,[22],0.074 µg/mL
same,neutralization IC80,[22],0.244 µg/mL
same,neutralization MPI,[22],100
same,neutralization IC50,[23],0.028 µg/mL
same,neutralization IC80,[23],0.085 µg/mL
same,neutralization MPI,[23],100
same,neutralization IC50,[24],0.031 µg/mL
same,neutralization IC80,[24],0.134 µg/mL
same,neutralization MPI,[24],100
same,neutralization IC50,[25],0.727 µg/mL
same,neutralization IC80,[25],3.29 µg/mL
same,neutralization MPI,[25],100
same,neutralization IC50,[26],0.216 µg/mL
same,neutralization IC80,[26],0.821 µg/mL
same,neutralization MPI,[26],100
same,neutralization IC50,[27],0.135 µg/mL
same,neutralization IC80,[27],0.812 µg/mL
same,neutralization MPI,[27],100
same,neutralization IC50,[28],0.06 µg/mL
same,neutralization IC80,[28],0.209 µg/mL
same,neutralization MPI,[28],100
same,neutralization IC50,[29],0.253 µg/mL
same,neutralization IC80,[29],1.16 µg/mL
same,neutralization MPI,[29],100
same,neutralization IC50,[30],> 50 µg/mL
same,neutralization IC80,[30],> 50 µg/mL
same,neutralization MPI,[30],49
same,neutralization IC50,[31],0.089 µg/mL
same,neutralization IC80,[31],0.777 µg/mL
same,neutralization MPI,[31],95
same,neutralization IC50,[32],> 50 µg/mL
same,neutralization IC80,[32],> 50 µg/mL
same,neutralization MPI,[32],20
same,neutralization IC50,[33],0.051 µg/mL
same,neutralization IC80,[33],0.247 µg/mL
same,neutralization MPI,[33],100
same,neutralization IC50,[34],> 50 µg/mL
same,neutralization IC80,[34],> 50 µg/mL
same,neutralization MPI,[34],9
same,neutralization IC50,[35],> 50 µg/mL
same,neutralization IC80,[35],> 50 µg/mL
same,neutralization MPI,[35],25
same,neutralization IC50,[36],0.07 µg/mL
same,neutralization IC80,[36],0.252 µg/mL
same,neutralization MPI,[36],100
same,neutralization IC50,[37],0.072 µg/mL
same,neutralization MPI,[37],100
N49P9.1 (antibody),neutralization IC50,[1],0.042 µg/mL
same,neutralization IC80,[1],0.15 µg/mL
same,neutralization MPI,[1],100
same,neutralization IC50,[2],0.101 µg/mL
same,neutralization IC80,[2],0.278 µg/mL
same,neutralization MPI,[2],100
same,neutralization IC50,[3],0.883 µg/mL
same,neutralization IC80,[3],4.26 µg/mL
same,neutralization MPI,[3],100
same,neutralization IC50,[4],0.156 µg/mL
same,neutralization IC80,[4],0.939 µg/mL
same,neutralization MPI,[4],100
same,neutralization IC50,[5],> 50 µg/mL
same,neutralization IC80,[5],> 50 µg/mL
same,neutralization MPI,[5],23
same,neutralization IC50,[6],0.012 µg/mL
same,neutralization IC80,[6],0.041 µg/mL
same,neutralization MPI,[6],100
same,neutralization IC50,[7],0.019 µg/mL
same,neutralization IC80,[7],0.057 µg/mL
same,neutralization MPI,[7],100
same,neutralization IC50,[8],> 50 µg/mL
same,neutralization IC80,[8],> 50 µg/mL
same,neutralization MPI,[8],45
same,neutralization IC50,[9],0.323 µg/mL
same,neutralization IC80,[9],1.13 µg/mL
same,neutralization MPI,[9],100
same,neutralization IC50,[10],0.189 µg/mL
same,neutralization IC80,[10],0.947 µg/mL
same,neutralization MPI,[10],100
same,neutralization IC50,[11],0.119 µg/mL
same,neutralization IC80,[11],0.389 µg/mL
same,neutralization MPI,[11],100
same,neutralization IC50,[12],0.17 µg/mL
same,neutralization IC80,[12],0.579 µg/mL
same,neutralization MPI,[12],100
same,neutralization IC50,[13],0.029 µg/mL
same,neutralization IC80,[13],0.083 µg/mL
same,neutralization MPI,[13],100
same,neutralization IC50,[14],0.049 µg/mL
same,neutralization IC80,[14],0.17 µg/mL
same,neutralization MPI,[14],100
same,neutralization IC50,[15],0.131 µg/mL
same,neutralization IC80,[15],0.67 µg/mL
same,neutralization MPI,[15],100
same,neutralization IC50,[16],0.062 µg/mL
same,neutralization IC80,[16],0.218 µg/mL
same,neutralization MPI,[16],100
same,neutralization IC50,[17],0.073 µg/mL
same,neutralization IC80,[17],0.232 µg/mL
same,neutralization MPI,[17],100
same,neutralization IC50,[18],0.469 µg/mL
same,neutralization IC80,[18],1.52 µg/mL
same,neutralization MPI,[18],100
same,neutralization IC50,[19],0.143 µg/mL
same,neutralization IC80,[19],0.476 µg/mL
same,neutralization MPI,[19],100
same,neutralization IC50,[20],0.127 µg/mL
same,neutralization IC80,[20],0.352 µg/mL
same,neutralization MPI,[20],100
same,neutralization IC50,[21],0.097 µg/mL
same,neutralization IC80,[21],0.259 µg/mL
same,neutralization MPI,[21],100
same,neutralization IC50,[22],0.067 µg/mL
same,neutralization IC80,[22],0.237 µg/mL
same,neutralization MPI,[22],100
same,neutralization IC50,[23],0.06 µg/mL
same,neutralization IC80,[23],0.163 µg/mL
same,neutralization MPI,[23],100
same,neutralization IC50,[24],0.04 µg/mL
same,neutralization IC80,[24],0.2 µg/mL
same,neutralization MPI,[24],100
same,neutralization IC50,[25],0.965 µg/mL
same,neutralization IC80,[25],3.93 µg/mL
same,neutralization MPI,[25],100
same,neutralization IC50,[26],0.508 µg/mL
same,neutralization IC80,[26],1.82 µg/mL
same,neutralization MPI,[26],100
same,neutralization IC50,[27],0.469 µg/mL
same,neutralization IC80,[27],1.62 µg/mL
same,neutralization MPI,[27],100
same,neutralization IC50,[28],0.076 µg/mL
same,neutralization IC80,[28],0.223 µg/mL
same,neutralization MPI,[28],100
same,neutralization IC50,[29],0.474 µg/mL
same,neutralization IC80,[29],2.24 µg/mL
same,neutralization MPI,[29],100
same,neutralization IC50,[30],> 50 µg/mL
same,neutralization IC80,[30],> 50 µg/mL
same,neutralization MPI,[30],30
same,neutralization IC50,[31],0.282 µg/mL
same,neutralization IC80,[31],6.78 µg/mL
same,neutralization MPI,[31],90
same,neutralization IC50,[32],> 50 µg/mL
same,neutralization IC80,[32],> 50 µg/mL
same,neutralization MPI,[32],6
same,neutralization IC50,[33],0.092 µg/mL
same,neutralization IC80,[33],0.286 µg/mL
same,neutralization MPI,[33],100
same,neutralization IC50,[34],> 50 µg/mL
same,neutralization IC80,[34],> 50 µg/mL
same,neutralization MPI,[34],7
same,neutralization IC50,[35],> 50 µg/mL
same,neutralization IC80,[35],> 50 µg/mL
same,neutralization MPI,[35],5
same,neutralization IC50,[36],0.091 µg/mL
same,neutralization IC80,[36],0.392 µg/mL
same,neutralization MPI,[36],100
same,neutralization IC50,[37],0.059 µg/mL
same,neutralization IC80,[37],0.178 µg/mL
same,neutralization MPI,[37],100
